Source: the supplement of paper PMC9112550, “Optimization of the antimicrobial peptide Bac7 by deep mutational scanning” (BMC Biology, 2022)

tested on: Escherichia coli TOP10; assay: shrunken log2 fold change of peptide-encoding DNA abundance (4.5 h post-induction vs induction); higher = less antimicrobial activity (less host growth inhibition); details: time post-induction: 4.5 h; library: site-saturation at positions 5, 18, 19, 20
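Further: peptides expressed intracellularly from a pBAD plasmid library in pooled LB shake-flask culture, induced with 0.3% L-arabinose, DNA abundance read by NGS, three biological replicates, DESeq2 with apeglm shrinkage.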

Row | Sequence | shrunken log2 fold change
1 | RRIRPRPPRLPRPRPRPAKPPRP | 0.196
2 | RRIRPRPPRLPRPRPRPAKVPRP | 0.045
3 | RRIRPRPPRLPRPRPRPALHPRP | 0.681
4 | RRIRPRPPRLPRPRPRPALNPRP | 0.0983
5 | RRIRPRPPRLPRPRPRPAMFPRP | 0.0516
6 | RRIRPRPPRLPRPRPRPANIPRP | -0.617
7 | RRIRPRPPRLPRPRPRPANPPRP | 0.13
8 | RRIRPRPPRLPRPRPRPAPTPRP | 0.704
9 | RRIRPRPPRLPRPRPRPAQQPRP | 0.263
10 | RRIRPRPPRLPRPRPRPARYPRP | 0.19
11 | RRIRPRPPRLPRPRPRPASTPRP | 0.11
12 | RRIRPRPPRLPRPRPRPATHPRP | 0.0822
13 | RRIRPRPPRLPRPRPRPATIPRP | -0.118
14 | RRIRPRPPRLPRPRPRPATVPRP | -0.0314
15 | RRIRPRPPRLPRPRPRPAVTPRP | 0.0942
16 | RRIRPRPPRLPRPRPRPAVYPRP | -0.0879
17 | RRIRPRPPRLPRPRPRPAYNPRP | -1.01
18 | RRIRPRPPRLPRPRPRPCASPRP | -0.0883
19 | RRIRPRPPRLPRPRPRPCCKPRP | -0.247
20 | RRIRPRPPRLPRPRPRPCDDPRP | 0.0508
21 | RRIRPRPPRLPRPRPRPCDMPRP | -0.217
22 | RRIRPRPPRLPRPRPRPCDTPRP | -0.193

Row | Sequence | shrunken log2 fold change
23 | RRIRPRPPRLPRPRPRPCFCPRP | 0.299
24 | RRIRPRPPRLPRPRPRPCFPPRP | -0.0413
25 | RRIRPRPPRLPRPRPRPCGSPRP | -0.023
26 | RRIRPRPPRLPRPRPRPCHFPRP | -0.265
27 | RRIRPRPPRLPRPRPRPCIHPRP | -0.252
28 | RRIRPRPPRLPRPRPRPCKFPRP | -0.0234
29 | RRIRPRPPRLPRPRPRPCKMPRP | -0.223
30 | RRIRPRPPRLPRPRPRPCMQPRP | -0.358
31 | RRIRPRPPRLPRPRPRPCPGPRP | -0.0306
32 | RRIRPRPPRLPRPRPRPCPQPRP | -0.0291
33 | RRIRPRPPRLPRPRPRPCQIPRP | -0.0156
34 | RRIRPRPPRLPRPRPRPCQMPRP | 0.0359
35 | RRIRPRPPRLPRPRPRPCQTPRP | 0.0185
36 | RRIRPRPPRLPRPRPRPCRNPRP | -0.176
37 | RRIRPRPPRLPRPRPRPCSGPRP | -0.0356
38 | RRIRPRPPRLPRPRPRPCSLPRP | 0.527
39 | RRIRPRPPRLPRPRPRPCSWPRP | 0.0726
40 | RRIRPRPPRLPRPRPRPCTQPRP | -0.106
41 | RRIRPRPPRLPRPRPRPCVGPRP | 0.267
42 | RRIRPRPPRLPRPRPRPCVTPRP | 0.15
43 | RRIRPRPPRLPRPRPRPCWEPRP | -0.0268
44 | RRIRPRPPRLPRPRPRPCWYPRP | -0.408

Row | Sequence | shrunken log2 fold change
45 | RRIRPRPPRLPRPRPRPCYAPRP | -0.414
46 | RRIRPRPPRLPRPRPRPCYEPRP | -0.195
47 | RRIRPRPPRLPRPRPRPCYRPRP | -0.154
48 | RRIRPRPPRLPRPRPRPCYYPRP | -0.436
49 | RRIRPRPPRLPRPRPRPDADPRP | 0.0741
50 | RRIRPRPPRLPRPRPRPDAEPRP | 0.496
51 | RRIRPRPPRLPRPRPRPDAFPRP | 0.342
52 | RRIRPRPPRLPRPRPRPDAGPRP | 0.442
53 | RRIRPRPPRLPRPRPRPDCYPRP | -0.0771
54 | RRIRPRPPRLPRPRPRPDDDPRP | -0.175
55 | RRIRPRPPRLPRPRPRPDDTPRP | -0.085
56 | RRIRPRPPRLPRPRPRPDESPRP | -0.188
57 | RRIRPRPPRLPRPRPRPDFLPRP | -0.235
58 | RRIRPRPPRLPRPRPRPDGCPRP | -0.228
59 | RRIRPRPPRLPRPRPRPDGKPRP | 0.25
60 | RRIRPRPPRLPRPRPRPDIHPRP | -0.458
61 | RRIRPRPPRLPRPRPRPDIRPRP | -0.0755
62 | RRIRPRPPRLPRPRPRPDLAPRP | 0.316
63 | RRIRPRPPRLPRPRPRPDLWPRP | 0.344
64 | RRIRPRPPRLPRPRPRPDMTPRP | -0.293
65 | RRIRPRPPRLPRPRPRPDMYPRP | -0.192
66 | RRIRPRPPRLPRPRPRPDNNPRP | -0.512

Row | Sequence | shrunken log2 fold change
67 | RRIRPRPPRLPRPRPRPDPLPRP | -0.379
68 | RRIRPRPPRLPRPRPRPDPPPRP | 0.249
69 | RRIRPRPPRLPRPRPRPDPYPRP | 0.0668
70 | RRIRPRPPRLPRPRPRPDQEPRP | -0.151
71 | RRIRPRPPRLPRPRPRPDQNPRP | -0.065
72 | RRIRPRPPRLPRPRPRPDREPRP | 0.0682
73 | RRIRPRPPRLPRPRPRPDSYPRP | -0.422
74 | RRIRPRPPRLPRPRPRPDTFPRP | -0.0596
75 | RRIRPRPPRLPRPRPRPDTLPRP | -0.284
76 | RRIRPRPPRLPRPRPRPDTMPRP | -0.649
77 | RRIRPRPPRLPRPRPRPDTQPRP | -0.371
78 | RRIRPRPPRLPRPRPRPDVAPRP | -0.0448
79 | RRIRPRPPRLPRPRPRPDVNPRP | -0.233
80 | RRIRPRPPRLPRPRPRPDVWPRP | 0.266
81 | RRIRPRPPRLPRPRPRPDVYPRP | -0.194
82 | RRIRPRPPRLPRPRPRPDYQPRP | -0.211
83 | RRIRPRPPRLPRPRPRPEANPRP | 0.473
84 | RRIRPRPPRLPRPRPRPECFPRP | 0.122
85 | RRIRPRPPRLPRPRPRPECKPRP | -0.352
86 | RRIRPRPPRLPRPRPRPEFCPRP | 0.18
87 | RRIRPRPPRLPRPRPRPEFQPRP | 0.0778
88 | RRIRPRPPRLPRPRPRPEGCPRP | 0.17

Row | Sequence | shrunken log2 fold change
89 | RRIRPRPPRLPRPRPRPEGMPRP | 0.305
90 | RRIRPRPPRLPRPRPRPEGNPRP | 0.189
91 | RRIRPRPPRLPRPRPRPEGTPRP | 0.0836
92 | RRIRPRPPRLPRPRPRPEHIPRP | 0.149
93 | RRIRPRPPRLPRPRPRPELKPRP | 0.0877
94 | RRIRPRPPRLPRPRPRPENPPRP | 0.0677
95 | RRIRPRPPRLPRPRPRPEPLPRP | 0.0833
96 | RRIRPRPPRLPRPRPRPERFPRP | -0.0264
97 | RRIRPRPPRLPRPRPRPERLPRP | 0.0284
98 | RRIRPRPPRLPRPRPRPESLPRP | -0.0197
99 | RRIRPRPPRLPRPRPRPESPPRP | 0.161
100 | RRIRPRPPRLPRPRPRPETMPRP | 0.00383
101 | RRIRPRPPRLPRPRPRPEVLPRP | -0.204
102 | RRIRPRPPRLPRPRPRPEVPPRP | 0.0363
103 | RRIRPRPPRLPRPRPRPEYKPRP | -0.293
104 | RRIRPRPPRLPRPRPRPEYNPRP | -0.624
105 | RRIRPRPPRLPRPRPRPEYVPRP | -0.0441
106 | RRIRPRPPRLPRPRPRPFAFPRP | 0.00781
107 | RRIRPRPPRLPRPRPRPFAPPRP | 0.14
108 | RRIRPRPPRLPRPRPRPFDFPRP | -0.206
109 | RRIRPRPPRLPRPRPRPFDLPRP | -0.736
